molecular target: HLA-A*02:01 (Homo sapiens, UniProt P04439, D140Y/D185E/D98H/E176V/E277Q/G131W/G231S/I119V/I121R/I166T/I218V/L300P/L318F/N151K/N90K/P208A/P217A/Q86G/Q94H/R138H/R169H/T345S); experiment: MHC binding assay (UV-ligand exchange, ELISA of exchange yield); settings: binding to HLA-A*02:01, UV-ligand exchange
How it was run: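 ELISA of β2m retained on streptavidin-captured, 100-fold diluted complexes (HRP anti-β2m, TMB, 450 nm) gives the yield. Complexes come from UV-triggered exchange of a photocleavable placeholder peptide for the candidate, which must bind to stop complex dissociation.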

| Peptide exchange (MHC class I binding score, peptide exchange yield) | Substance |
| --- | --- |
| “+++” (≥50 = +++) | 201 (RLVDYLEGI; listed as Homo sapiens) [compound 201] |
| “+++” (≥50 = +++) | 202 (ALLDQQGSRWTL; listed as Homo sapiens) [compound 202] |
| “++” (≥20% = ++) | 204 (KIAENVEEV; listed as Homo sapiens) [compound 204] |
| “+++” (≥50 = +++) | 205 (SLYPGTETMGL; listed as Homo sapiens) [compound 205] |
| “+++” (≥50 = +++) | 206 (VLQEGKLQKLAQL; listed as Homo sapiens) [compound 206] |
| “++” (≥20% = ++) | 207 (GLTSTNAEV; listed as Homo sapiens) [compound 207] |
| “+++” (≥50 = +++) | 208 (KISPVTFSV; listed as Homo sapiens) [compound 208] |
| “++” (≥20% = ++) | 209 (KLIESKHEV; listed as Homo sapiens) [compound 209] |
| “++” (≥20% = ++) | 210 (LLLNAVLTV; listed as Homo sapiens) [compound 210] |
| “++” (≥20% = ++) | 211 (LLWPGAALL; listed as Homo sapiens) [compound 211] |
| “++” (≥20% = ++) | 212 (ALWDQDNLSV; listed as Homo sapiens) [compound 212] |
| “+++” (≥50 = +++) | 214 (FLLDLDPLLL; listed as Homo sapiens) [compound 214] |
| “+++” (≥50 = +++) | 215 (QLINHLHAV; listed as Homo sapiens) [compound 215] |
| “+++” (≥50 = +++) | 216 (NLWEDPYYL; listed as Homo sapiens) [compound 216] |
| “++” (≥20% = ++) | 217 (ALIHPVSTV; listed as Homo sapiens) [compound 217] |
| “++” (≥20% = ++) | 218 (SALEELVNV; listed as Homo sapiens) [compound 218] |
| “+++” (≥50 = +++) | 219 (KLSDIGITV; listed as Homo sapiens) [compound 219] |
| “++” (≥20% = ++) | 220 (LLQKFVPEI; listed as Homo sapiens) [compound 220] |
| “++” (≥20% = ++) | 221 (ALYEEGLLL; listed as Homo sapiens) [compound 221] |
| “++” (≥20% = ++) | 222 (NLIENVQRL; listed as Homo sapiens) [compound 222] |
| “+++” (≥50 = +++) | 223 (ALLENIALYL; listed as Homo sapiens) [compound 223] |
| “+++” (≥50 = +++) | 224 (TLIDAQWVL; listed as Homo sapiens) [compound 224] |
| “+++” (≥50 = +++) | 225 (SLLKVLPAL; listed as Homo sapiens) [compound 225] |
| “++” (≥20% = ++) | 226 (MLYVVPIYL; listed as Homo sapiens) [compound 226] |
| “++” (≥20% = ++) | 227 (ALMNTLLYL; listed as Homo sapiens) [compound 227] |
| “++” (≥20% = ++) | 228 (AMQEYIAVV; listed as Homo sapiens) [compound 228] |

The next lines start with the substance.

| Substance | Peptide exchange (MHC class I binding score, peptide exchange yield) |
| --- | --- |
| 160 (FLFDEEIEQI; listed as Homo sapiens) [compound 160] | “+++” (≥50 = +++) |
| 161 (ALLEGVNTV; listed as Homo sapiens) [compound 161] | “+++” (≥50 = +++) |
| 162 (YQQAQVPSV; listed as Homo sapiens) [compound 162] | “+++” (≥50 = +++) |
| 163 (ALDEMGDLLQL; listed as Homo sapiens) [compound 163] | “+++” (≥50 = +++) |
| 164 (ALLPQPKNLTV; listed as Homo sapiens) [compound 164] | “+++” (≥50 = +++) |
| 165 (SLLDEIRAV; listed as Homo sapiens) [compound 165] | “+++” (≥50 = +++) |
| 166 (YLNHLEPPV; listed as Homo sapiens) [compound 166] | “+++” (≥50 = +++) |
| 167 (KVLEVTEEFGV; listed as Homo sapiens) [compound 167] | “+++” (≥50 = +++) |
| 168 (KILDADIQL; listed as Homo sapiens) [compound 168] | “++++” (≥75% = ++++) |
| 169 (NLPEYLPFV; listed as Homo sapiens) [compound 169] | “+++” (≥50 = +++) |
| 170 (RLQETLSAA; listed as Homo sapiens) [compound 170] | “+++” (≥50 = +++) |
| 171 (LLLPLQILL; listed as Homo sapiens) [compound 171] | “+++” (≥50 = +++) |
| 172 (VLYSYTIITV; listed as Homo sapiens) [compound 172] | “++” (≥20% = ++) |
| 173 (LLDSASAGLYL; listed as Homo sapiens) [compound 173] | “+++” (≥50 = +++) |
| 174 (ALAQYLITA; listed as Homo sapiens) [compound 174] | “+++” (≥50 = +++) |
| 175 (YLFENISQL; listed as Homo sapiens) [compound 175] | “+++” (≥50 = +++) |
| 176 (YLMEGSYNKVFL; listed as Homo sapiens) [compound 176] | “++” (≥20% = ++) |
| 177 (YLLPEEYTSTL; listed as Homo sapiens) [compound 177] | “++++” (≥75% = ++++) |
| 178 (ALTEIAFVV; listed as Homo sapiens) [compound 178] | “++++” (≥75% = ++++) |
| 179 (KVLNELYTV; listed as Homo sapiens) [compound 179] | “+++” (≥50 = +++) |
| 180 (FQIDPHSGLVTV; listed as Homo sapiens) [compound 180] | “++” (≥20% = ++) |

| Substance | Peptide exchange (MHC class I binding score, peptide exchange yield) |
| --- | --- |
| 181 (LLWAGTAFQV; listed as Homo sapiens) [compound 181] | “+++” (≥50 = +++) |
| 182 (MLLEAPGIFL; listed as Homo sapiens) [compound 182] | “+++” (≥50 = +++) |
| 183 (FGLDLVTEL; listed as Homo sapiens) [compound 183] | “+++” (≥50 = +++) |
| 184 (YLMDINGKMWL; listed as Homo sapiens) [compound 184] | “+++” (≥50 = +++) |
| 185 (FLIDDKGYTL; listed as Homo sapiens) [compound 185] | “++” (≥20% = ++) |
| 186 (TLFFQQNAL; listed as Homo sapiens) [compound 186] | “++” (≥20% = ++) |
| 187 (RQISIRGIVGV; listed as Homo sapiens) [compound 187] | “+++” (≥50 = +++) |
| 188 (GLFPVTPEAV; listed as Homo sapiens) [compound 188] | “+++” (≥50 = +++) |
| 189 (ALQRKLPYV; listed as Homo sapiens) [compound 189] | “+++” (≥50 = +++) |
| 190 (FLSSLTETI; listed as Homo sapiens) [compound 190] | “+++” (≥50 = +++) |
| 191 (LLQEGQALEYV; listed as Homo sapiens) [compound 191] | “++” (≥20% = ++) |
| 192 (KMLDGASFTL; listed as Homo sapiens) [compound 192] | “+++” (≥50 = +++) |
| 193 (QLLDADGFLNV; listed as Homo sapiens) [compound 193] | “+++” (≥50 = +++) |
| 194 (ALPLFVITV; listed as Homo sapiens) [compound 194] | “+++” (≥50 = +++) |
| 195 (GLFADLLPRL; listed as Homo sapiens) [compound 195] | “+++” (≥50 = +++) |
| 196 (YLYSVEIKL; listed as Homo sapiens) [compound 196] | “++++” (≥75% = ++++) |
| 197 (ALGPEGGRV; listed as Homo sapiens) [compound 197] | “++” (≥20% = ++) |
| 198 (KTINKVPTV; listed as Homo sapiens) [compound 198] | “+++” (≥50 = +++) |
| 199 (ALQDVPLSSV; listed as Homo sapiens) [compound 199] | “+++” (≥50 = +++) |
| 200 (LLFGSVQEV; listed as Homo sapiens) [compound 200] | “+++” (≥50 = +++) |

Source: US10047131B2, “Peptides and combination of peptides for use in immunotherapy against ovarian cancer and other cancers” (immatics biotechnologies GmbH, priority 2015, dated 2018)
